Test [1] concerns the target T1, HA head domain of H1 A/Solomon Islands/3/2006 (Influenza A virus A/Solomon …, strain).
T1 chain: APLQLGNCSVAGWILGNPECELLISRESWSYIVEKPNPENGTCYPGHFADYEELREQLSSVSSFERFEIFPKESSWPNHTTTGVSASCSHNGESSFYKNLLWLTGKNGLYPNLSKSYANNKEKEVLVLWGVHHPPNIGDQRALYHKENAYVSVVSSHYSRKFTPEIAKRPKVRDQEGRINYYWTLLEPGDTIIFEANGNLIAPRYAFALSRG
As to the kind of experiment: BLI.

A further test has as its target H1 HA of A/Texas/36/1991 (Influenza A virus A/Texas/36/1991 (H1N1), UniProt Q6WG02, strain). As to the kind of experiment: ELISA. (In general: ELISA stands for enzyme-linked immunosorbent assay.)

From paper PMC6629437 (Cell, 2019) come the findings set out here.

B1: rFluA-20 Fab (Fab, V domains shown)
VH: QVQLEESGPGLVKPSETLSLTCSVSGVSVTSDIYYWTWIRQPPGKGLEWIGYIFYNGDTNYNPSLKSRVTMSIDTSKNEFSLRLTSVTAADTAVYFCARGTEDLGYCSSGSCPNHWGQGTLVTVSS
VL: DIVMTQSPSSLSASIGDRVTITCRPSQNIRSFLNWFQHKPGKAPKLLIYAASNLQSGVPSRFSGSGSGTEFTLTIRSLQPEDFATYYCQQSYNTPPTFGQGTKVEIK
As to B1, the binding result in test [1] is listed as “binds”.

B2: rFluA-20 IgG D98A (H) (antibody, V domains shown)
VH: QVQLEESGPGLVKPSETLSLTCSVSGVSVTSDIYYWTWIRQPPGKGLEWIGYIFYNGDTNYNPSLKSRVTMSIDTSKNEFSLRLTSVTAADTAVYFCARGTEALGYCSSGSCPNHWGQGTLVTVSS
VL: DIVMTQSPSSLSASIGDRVTITCRPSQNIRSFLNWFQHKPGKAPKLLIYAASNLQSGVPSRFSGSGSGTEFTLTIRSLQPEDFATYYCQQSYNTPPTFGQGTKVEIK
On to B2, for which the binding result with H1 HA of A/Texas/36/1991 is given as “no binding (tested: 10 μg/mL)”.

B3: rFluA-20 IgG Y49A (L) (antibody, V domains shown)
VH: QVQLEESGPGLVKPSETLSLTCSVSGVSVTSDIYYWTWIRQPPGKGLEWIGYIFYNGDTNYNPSLKSRVTMSIDTSKNEFSLRLTSVTAADTAVYFCARGTEDLGYCSSGSCPNHWGQGTLVTVSS
VL: DIVMTQSPSSLSASIGDRVTITCRPSQNIRSFLNWFQHKPGKAPKLLIAAASNLQSGVPSRFSGSGSGTEFTLTIRSLQPEDFATYYCQQSYNTPPTFGQGTKVEIK
As to B3, the binding result with H1 HA of A/Texas/36/1991 is “no binding (tested: 10 μg/mL)”.

B4: rFluA-20 IgG Q55A (L) (antibody, V domains shown)
VH: QVQLEESGPGLVKPSETLSLTCSVSGVSVTSDIYYWTWIRQPPGKGLEWIGYIFYNGDTNYNPSLKSRVTMSIDTSKNEFSLRLTSVTAADTAVYFCARGTEDLGYCSSGSCPNHWGQGTLVTVSS
VL: DIVMTQSPSSLSASIGDRVTITCRPSQNIRSFLNWFQHKPGKAPKLLIYAASNLASGVPSRFSGSGSGTEFTLTIRSLQPEDFATYYCQQSYNTPPTFGQGTKVEIK
As for B4, the binding result in the test with H1 HA of A/Texas/36/1991 is recorded as “binds”.
